The values below come from publication PMC9285637 (Molecular cancer research : MCR, 2019).

The target in assay [1] is T1, mCherry-LacI-PALB2^WD40 (UniProt Q86YC2 841-1186).
T1 sequence (looked up): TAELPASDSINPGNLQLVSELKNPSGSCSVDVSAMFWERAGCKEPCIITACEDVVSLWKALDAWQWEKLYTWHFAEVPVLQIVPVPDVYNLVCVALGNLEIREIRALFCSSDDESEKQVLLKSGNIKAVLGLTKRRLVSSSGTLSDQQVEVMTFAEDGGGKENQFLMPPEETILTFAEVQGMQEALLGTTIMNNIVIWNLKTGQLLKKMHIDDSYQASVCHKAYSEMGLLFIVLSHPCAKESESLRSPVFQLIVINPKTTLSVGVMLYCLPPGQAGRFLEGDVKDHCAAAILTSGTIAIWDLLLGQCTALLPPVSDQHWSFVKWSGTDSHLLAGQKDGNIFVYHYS
Nature of the assay: LacO/LacI tethering recruitment assay.

Assay [2] addresses T2, mCherry-LacI-PALB2^FL (UniProt Q86YC2 1-1186).
T2 sequence (looked up): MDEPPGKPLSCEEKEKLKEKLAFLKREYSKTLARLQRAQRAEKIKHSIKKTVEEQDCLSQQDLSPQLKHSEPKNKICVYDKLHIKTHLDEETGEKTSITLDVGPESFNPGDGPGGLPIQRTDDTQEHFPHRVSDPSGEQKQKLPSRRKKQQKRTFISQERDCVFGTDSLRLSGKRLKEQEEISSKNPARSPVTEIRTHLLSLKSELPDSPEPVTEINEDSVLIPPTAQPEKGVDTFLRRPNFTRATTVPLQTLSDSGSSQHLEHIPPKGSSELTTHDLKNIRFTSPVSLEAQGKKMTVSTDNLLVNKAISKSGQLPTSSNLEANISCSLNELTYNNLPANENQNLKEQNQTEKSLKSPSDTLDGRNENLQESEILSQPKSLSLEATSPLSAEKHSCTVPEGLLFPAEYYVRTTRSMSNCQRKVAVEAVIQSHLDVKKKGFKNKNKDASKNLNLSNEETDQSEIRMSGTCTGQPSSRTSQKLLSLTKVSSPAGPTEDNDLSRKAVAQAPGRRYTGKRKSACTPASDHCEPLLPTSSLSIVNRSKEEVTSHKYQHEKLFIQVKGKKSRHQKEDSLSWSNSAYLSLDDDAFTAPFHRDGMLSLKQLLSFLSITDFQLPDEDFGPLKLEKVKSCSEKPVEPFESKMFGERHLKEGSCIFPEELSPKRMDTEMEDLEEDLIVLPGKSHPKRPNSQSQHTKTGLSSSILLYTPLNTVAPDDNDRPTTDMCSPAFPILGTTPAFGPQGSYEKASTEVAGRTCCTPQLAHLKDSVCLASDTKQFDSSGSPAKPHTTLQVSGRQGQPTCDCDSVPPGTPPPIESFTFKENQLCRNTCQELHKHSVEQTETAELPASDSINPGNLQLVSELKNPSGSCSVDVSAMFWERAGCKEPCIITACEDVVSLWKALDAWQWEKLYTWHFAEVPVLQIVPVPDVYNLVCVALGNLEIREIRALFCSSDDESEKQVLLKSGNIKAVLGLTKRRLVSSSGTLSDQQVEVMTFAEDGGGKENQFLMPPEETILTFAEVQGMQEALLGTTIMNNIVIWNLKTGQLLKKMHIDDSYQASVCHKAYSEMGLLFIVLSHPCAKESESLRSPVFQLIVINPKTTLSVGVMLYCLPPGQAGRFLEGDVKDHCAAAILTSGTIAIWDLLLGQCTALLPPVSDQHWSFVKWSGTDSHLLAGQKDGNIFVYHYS
Nature of the assay: LacO/LacI tethering recruitment assay.

B1: GFP-USP22^DUB (domain or fragment, human, UniProt Q9UPT9 164-525, looked up)
chain: RRKITSNCTIGLRGLINLGNTCFMNCIVQALTHTPLLRDFFLSDRHRCEMQSPSSCLVCEMSSLFQEFYSGHRSPHIPYKLLHLVWTHARHLAGYEQQDAHEFLIAALDVLHRHCKGDDNGKKANNPNHCNCIIDQIFTGGLQSDVTCQVCHGVSTTIDPFWDISLDLPGSSTPFWPLSPGSEGNVVNGESHVSGTTTLTDCLRRFTRPEHLGSSAKIKCSGCHSYQESTKQLTMKKLPIVACFHLKRFEHSAKLRRKITTYVSFPLELDMTPFMASSKESRMNGQYQQPTDSLNNDNKYSLFAVVNHQGTLESGHYTSFIRQHKDQWFKCDDAIITKASIKDVLDSEGYLLFYHKQFLEYE
For the molecule B1, the “percent of cells with recruitment of GFP-USP22 to the LacO array” value in assay [1] was found to be 55%.

B2: GFP-USP22 (enzyme, human, UniProt Q9UPT9 1-525, looked up)
chain: MVSRPEPEGEAMDAELAVAPPGCSHLGSFKVDNWKQNLRAIYQCFVWSGTAEARKRKAKSCICHVCGVHLNRLHSCLYCVFFGCFTKKHIHEHAKAKRHNLAIDLMYGGIYCFLCQDYIYDKDMEIIAKEEQRKAWKMQGVGEKFSTWEPTKRELELLKHNPKRRKITSNCTIGLRGLINLGNTCFMNCIVQALTHTPLLRDFFLSDRHRCEMQSPSSCLVCEMSSLFQEFYSGHRSPHIPYKLLHLVWTHARHLAGYEQQDAHEFLIAALDVLHRHCKGDDNGKKANNPNHCNCIIDQIFTGGLQSDVTCQVCHGVSTTIDPFWDISLDLPGSSTPFWPLSPGSEGNVVNGESHVSGTTTLTDCLRRFTRPEHLGSSAKIKCSGCHSYQESTKQLTMKKLPIVACFHLKRFEHSAKLRRKITTYVSFPLELDMTPFMASSKESRMNGQYQQPTDSLNNDNKYSLFAVVNHQGTLESGHYTSFIRQHKDQWFKCDDAIITKASIKDVLDSEGYLLFYHKQFLEYE
B2: the figures for the “percent of cells with recruitment of GFP-USP22 to the LacO array” value in assay [1] and in assay [2] were 37.5% and 35%, respectively.
